Results reported in patent publication EP4289863A9.

Legend:
human IL-36R (human) [1] = biological target: T1, human IL-36R (human) (UniProt Q9HB29); experiment: cell-based or functional assay
T1 sequence (looked up): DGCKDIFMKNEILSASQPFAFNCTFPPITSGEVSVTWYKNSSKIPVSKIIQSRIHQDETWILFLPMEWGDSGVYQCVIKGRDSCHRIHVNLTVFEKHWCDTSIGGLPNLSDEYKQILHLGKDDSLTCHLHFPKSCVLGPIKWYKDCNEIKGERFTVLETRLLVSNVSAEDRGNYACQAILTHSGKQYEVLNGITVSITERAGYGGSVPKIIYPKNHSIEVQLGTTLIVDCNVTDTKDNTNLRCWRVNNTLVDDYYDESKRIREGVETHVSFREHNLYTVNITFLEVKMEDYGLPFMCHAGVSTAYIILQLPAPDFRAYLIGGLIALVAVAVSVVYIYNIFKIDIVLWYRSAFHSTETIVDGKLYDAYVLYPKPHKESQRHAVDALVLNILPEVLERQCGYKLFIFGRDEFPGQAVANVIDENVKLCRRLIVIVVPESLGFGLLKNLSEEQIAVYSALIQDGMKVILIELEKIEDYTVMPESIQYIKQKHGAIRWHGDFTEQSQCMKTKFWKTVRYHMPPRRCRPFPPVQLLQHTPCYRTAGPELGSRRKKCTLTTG

[2] = biological target: T2, human IL-36R (antigen of the OD450 binding screen of Table 1) (human) (UniProt Q9HB29); experiment: OD450 binding screen of hybridoma supernatant, antigen not named
T2 sequence (looked up): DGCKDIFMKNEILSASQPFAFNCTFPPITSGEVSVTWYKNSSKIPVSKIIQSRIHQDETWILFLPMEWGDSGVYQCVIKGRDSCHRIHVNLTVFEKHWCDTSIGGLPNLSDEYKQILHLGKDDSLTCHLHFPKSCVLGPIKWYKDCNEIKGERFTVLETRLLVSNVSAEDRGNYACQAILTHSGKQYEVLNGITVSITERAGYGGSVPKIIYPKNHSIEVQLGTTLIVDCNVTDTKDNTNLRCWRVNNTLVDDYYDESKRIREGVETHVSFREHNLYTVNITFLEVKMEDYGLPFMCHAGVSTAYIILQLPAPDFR

monkey IL-36R (monkey) = experiment: flow cytometry on cells, hybridoma supernatant
human IL1R1 (human) = human IL1R1 (human) (UniProt P14778); experiment: flow cytometry on cells, hybridoma supernatant
Chain of human IL1R1 (human) (P14778 18-569): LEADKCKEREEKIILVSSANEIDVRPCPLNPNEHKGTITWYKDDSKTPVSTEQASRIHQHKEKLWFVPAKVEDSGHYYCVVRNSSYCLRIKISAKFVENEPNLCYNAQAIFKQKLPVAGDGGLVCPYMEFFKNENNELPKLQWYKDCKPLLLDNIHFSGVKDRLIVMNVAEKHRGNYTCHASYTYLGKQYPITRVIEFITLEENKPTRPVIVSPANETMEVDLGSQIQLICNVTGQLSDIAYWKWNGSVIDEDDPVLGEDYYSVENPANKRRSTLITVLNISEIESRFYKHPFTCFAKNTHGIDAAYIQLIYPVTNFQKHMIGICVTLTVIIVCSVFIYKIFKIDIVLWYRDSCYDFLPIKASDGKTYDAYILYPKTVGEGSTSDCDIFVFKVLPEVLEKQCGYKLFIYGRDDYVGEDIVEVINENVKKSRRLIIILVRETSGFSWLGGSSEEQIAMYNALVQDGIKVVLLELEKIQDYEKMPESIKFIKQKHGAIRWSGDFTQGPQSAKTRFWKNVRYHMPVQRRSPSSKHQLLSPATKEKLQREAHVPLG

human IL-36R (human) [3] = biological target: T1, human IL-36R (human); experiment: flow cytometry on cells, hybridoma supernatant

IL-6 ratio in blockage of human IL36β functional activity (hybridoma supernatant/positive control) (human IL-36R (human) [1]): 0.07%
IL-8 ratio in blockage of human IL36α functional activity (hybridoma supernatant/positive control) (human IL-36R (human) [1]): -4.02%
IL-8 ratio in blockage of human IL36β functional activity (hybridoma supernatant/positive control) (human IL-36R (human) [1]): -4.62%
IL-8 ratio in blockage of human IL36γ functional activity (hybridoma supernatant/positive control) (human IL-36R (human) [1]): -3.86%
Binding activity OD450 value [2]: 2.16 OD450
MFI ratio (hybridoma supernatant/positive control) (monkey IL-36R (monkey)): 105%
MFI ratio (hybridoma supernatant/negative control) (human IL1R1 (human)): 118%
MFI ratio (hybridoma supernatant/positive control) (human IL-36R (human) [3]): 81.6%
B1: 111(1)-E5 (antibody, part only; not given: light chain, V domains shown, part only)
VH: QVQLQQTGSVLVRPGTSVKLSCKASGYTFTSSWMHWAKQRPGQGLEWIGEIHPNSAKTNYNEKFKGKATLTVDTFSSTAYVDLSSLASEDSAVYYCARVDYGKPWFAYWGQGTLVTVSA
